Data published in patent US10800847.

Columns and labels:
[1] = target: HLA-Cw*1802 (Cw18) (human); assay: Luminex, iBead vs regular bead MFI, 1:8
[2] = target: HLA-Cw*1203 (Cw12) (human); assay: Luminex, iBead vs regular bead MFI, 1:8
[3] = target: HLA-Cw*1402 (Cw14) (human); assay: Luminex, iBead vs regular bead MFI, 1:8
[4] = target: HLA-Cw*1601 (Cw16) (human); assay: Luminex, iBead vs regular bead MFI, 1:8
[5] = target: HLA-Cw*0304 (Cw10) (human); assay: Luminex, iBead vs regular bead MFI, 1:8
[6] = target: HLA-Cw*0702 (Cw7) (human); assay: Luminex, iBead vs regular bead MFI, 1:8
[7] = target: HLA-Cw*0801 (Cw8) (human); assay: Luminex, iBeads (#6), 1:8
[8] = target: HLA-Cw*1802 (Cw18) (human); assay: Luminex, iBeads (#6), 1:8
[9] = target: HLA-Cw*0302 (Cw10) (human); assay: Luminex, iBeads (#6), 1:8
[10] = target: HLA-Cw*1502 (Cw15) (human); assay: Luminex, iBeads (#6), 1:8
[11] = target: HLA-Cw*0501 (Cw5) (human); assay: Luminex, iBeads (#6), 1:8
[12] = target: HLA-Cw*1203 (Cw12) (human); assay: Luminex, iBeads (#6), 1:8
HLA-B*8201 (B82) (human) [13] = assay: Luminex, iBeads (#6), 1:8
[14] = target: HLA-Cw*1701 (Cw17) (human); assay: Luminex, iBeads (#6), 1:8
[15] = target: HLA-Cw*1402 (Cw14) (human); assay: Luminex, iBeads (#6), 1:8
[16] = target: HLA-Cw*0602 (Cw6) (human); assay: Luminex, iBeads (#6), 1:8
[17] = target: HLA-Cw*0303 (Cw9) (human); assay: Luminex, iBeads (#6), 1:8
[18] = target: HLA-Cw*1601 (Cw16) (human); assay: Luminex, iBeads (#6), 1:8
[19] = target: HLA-Cw*0304 (Cw10) (human); assay: Luminex, iBeads (#6), 1:8
[20] = target: Albumin (negative control beads) (human or bovine); assay: Luminex, iBeads (#6), 1:8
[21] = target: HLA-Cw*0702 (Cw7) (human); assay: Luminex, iBeads (#6), 1:8
[22] = target: HLA-Cw*0401 (Cw4) (human); assay: Luminex, regular beads (#7), 1:8
[23] = target: HLA-Cw*0102 (Cw1) (human); assay: Luminex, regular beads (#7), 1:8
[24] = target: HLA-Cw*1802 (Cw18) (human); assay: Luminex, regular beads (#7), 1:8
[25] = target: HLA-Cw*0302 (Cw10) (human); assay: Luminex, regular beads (#7), 1:8
[26] = target: HLA-Cw*1502 (Cw15) (human); assay: Luminex, regular beads (#7), 1:8
[27] = target: HLA-Cw*0501 (Cw5) (human); assay: Luminex, regular beads (#7), 1:8
HLA-B*8201 (B82) (human) [28] = assay: Luminex, regular beads (#7), 1:8
[29] = target: HLA-Cw*1701 (Cw17) (human); assay: Luminex, regular beads (#7), 1:8
[30] = target: HLA-Cw*1402 (Cw14) (human); assay: Luminex, regular beads (#7), 1:8
[31] = target: HLA-Cw*0602 (Cw6) (human); assay: Luminex, regular beads (#7), 1:8
[32] = target: HLA-Cw*0303 (Cw9) (human); assay: Luminex, regular beads (#7), 1:8
[33] = target: HLA-Cw*0304 (Cw10) (human); assay: Luminex, regular beads (#7), 1:8
[34] = target: Albumin (negative control beads) (human or bovine); assay: Luminex, regular beads (#7), 1:8
[35] = target: HLA-Cw*0202 (Cw2) (human); assay: Luminex, regular beads (#7), 1:8
[36] = target: HLA-Cw*0702 (Cw7) (human); assay: Luminex, regular beads (#7), 1:8
[37] = target: HLA-A*4301 (A43) single antigen on beads (human); assay: Luminex iBeads (#6), IVIg 1:8
[38] = target: HLA-A*3401 (A34) single antigen on beads (human); assay: Luminex iBeads (#6), IVIg 1:8
[39] = target: HLA-A*2902 (A29) single antigen on beads (human); assay: Luminex iBeads (#6), IVIg 1:8
[40] = target: HLA-A*3101 (A31) single antigen on beads (human); assay: Luminex iBeads (#6), IVIg 1:8
[41] = target: HLA-A*3301 (A33) single antigen on beads (human); assay: Luminex iBeads (#6), IVIg 1:8
[42] = target: HLA-A*3402 (A34) single antigen on beads (human); assay: Luminex iBeads (#6), IVIg 1:8
[43] = target: HLA-A*3201 (A32) single antigen on beads (human); assay: Luminex iBeads (#6), IVIg 1:8
[44] = target: HLA-A*3601 (A36) single antigen on beads (human); assay: Luminex iBeads (#6), IVIg 1:8
[45] = target: HLA-A*3303 (A33) single antigen on beads (human); assay: Luminex iBeads (#6), IVIg 1:8
[46] = target: HLA-A*3002 (A30) single antigen on beads (human); assay: Luminex iBeads (#6), IVIg 1:8
[47] = target: HLA-A*6601 (A66) single antigen on beads (human); assay: Luminex iBeads (#6), IVIg 1:8
[48] = target: HLA-Cw*0602 (Cw6) (human); assay: Luminex, iBead vs regular bead MFI, 1:8
[49] = target: HLA-Cw*1203 (Cw12) (human); assay: Luminex, regular beads (#7), 1:8
[50] = target: HLA-Cw*1601 (Cw16) (human); assay: Luminex, regular beads (#7), 1:8

## IVIg GamaSTAN S/D (Talecris Biotherapeutics, USA) (antibody)
[1]
  Difference %: -2%
[2]
  Difference %: -54%
[3]
  Difference %: -57%
[4]
  Difference %: -45%
[5]
  Difference %: -26%
[6]
  Difference %: -54%
[7]
  MFI: 1940 MFI
[8]
  MFI: 7810 MFI
[9]
  MFI: 2380 MFI
[10]
  MFI: 7670 MFI
[11]
  MFI: 6350 MFI
[12]
  MFI: 2660 MFI
HLA-B*8201 (B82) (human) [13]
  MFI: 4260 MFI
[14]
  MFI: 9610 MFI
[15]
  MFI: 1820 MFI
[16]
  MFI: 8180 MFI
[17]
  MFI: 2610 MFI
[18]
  MFI: 2950 MFI
[19]
  MFI: 2750 MFI
[20]
  MFI: 5030 MFI
[21]
  MFI: 3480 MFI
[22]
  MFI: 6290 MFI
[23]
  MFI: 4540 MFI
[24]
  MFI: 7980 MFI
[25]
  MFI: 4010 MFI
[26]
  MFI: 6170 MFI
[27]
  MFI: 6970 MFI
HLA-B*8201 (B82) (human) [28]
  MFI: 3860 MFI
[29]
  MFI: 7860 MFI
[30]
  MFI: 4270 MFI
[31]
  MFI: 9170 MFI
[32]
  MFI: 2860 MFI
[33]
  MFI: 3710 MFI
[34]
  MFI: 3790 MFI
[35]
  MFI: 7180 MFI
[36]
  MFI: 7620 MFI
[37]
  MFI: 4180 MFI
[38]
  MFI: 4320 MFI
[39]
  MFI: 4430 MFI
[40]
  MFI: 351 MFI
[41]
  MFI: 1880 MFI
[42]
  MFI: 1210 MFI
[43]
  MFI: 1820 MFI
[44]
  MFI: 1380 MFI
[45]
  MFI: 725 MFI
[46]
  MFI: 929 MFI
[47]
  MFI: 2610 MFI

## IVIg Gamunex-C Lot NKLG1 (antibody)
[1]
  Difference %: -58%
[2]
  Difference %: -32%
[3]
  Difference %: -45%
[48]
  Difference %: -65%
[4]
  Difference %: -52%
[5]
  Difference %: -28%
[6]
  Difference %: -54%
[8]
  MFI: 3580 MFI
[9]
  MFI: 4870 MFI
[10]
  MFI: 3590 MFI
[11]
  MFI: 4010 MFI
[12]
  MFI: 4810 MFI
HLA-B*8201 (B82) (human) [13]
  MFI: 2730 MFI
[14]
  MFI: 6150 MFI
[15]
  MFI: 3970 MFI
[16]
  MFI: 4230 MFI
[17]
  MFI: 4290 MFI
[18]
  MFI: 4070 MFI
[19]
  MFI: 4140 MFI
[20]
  MFI: 7150 MFI
[22]
  MFI: 7530 MFI
[24]
  MFI: 8430 MFI
[27]
  MFI: 7550 MFI
[49]
  MFI: 7100 MFI
HLA-B*8201 (B82) (human) [28]
  MFI: 6060 MFI
[29]
  MFI: 6560 MFI
[30]
  MFI: 7240 MFI
[31]
  MFI: 12000 MFI
[32]
  MFI: 4260 MFI
[50]
  MFI: 8460 MFI
[34]
  MFI: 10800 MFI
[36]
  MFI: 11800 MFI
[39]
  MFI: 6010 MFI
[40]
  MFI: 3410 MFI
[41]
  MFI: 4460 MFI
[43]
  MFI: 3760 MFI
[44]
  MFI: 3950 MFI
[45]
  MFI: 3330 MFI

## IVIg Octagam (Octapharma, Lachen, Switzerland) (antibody)
[1]
  Difference %: -92%
[3]
  Difference %: -88%
[48]
  Difference %: -96%
[4]
  Difference %: -88%
[5]
  Difference %: -74%
[6]
  Difference %: -89%
[7]
  MFI: 650 MFI
[8]
  MFI: 873 MFI
[9]
  MFI: 1170 MFI
[10]
  MFI: 255 MFI
[11]
  MFI: 1510 MFI
[12]
  MFI: 1620 MFI
HLA-B*8201 (B82) (human) [13]
  MFI: 510 MFI
[14]
  MFI: 2710 MFI
[15]
  MFI: 976 MFI
[16]
  MFI: 586 MFI
[17]
  MFI: 1220 MFI
[18]
  MFI: 1110 MFI
[19]
  MFI: 1440 MFI
[21]
  MFI: 1620 MFI
[22]
  MFI: 9880 MFI
[23]
  MFI: 7720 MFI
[24]
  MFI: 10600 MFI
[25]
  MFI: 5610 MFI
[26]
  MFI: 4820 MFI
[27]
  MFI: 8770 MFI
[49]
  MFI: 8660 MFI
HLA-B*8201 (B82) (human) [28]
  MFI: 5030 MFI
[29]
  MFI: 8980 MFI
[30]
  MFI: 8430 MFI
[32]
  MFI: 3350 MFI
[50]
  MFI: 9260 MFI
[33]
  MFI: 5550 MFI
[34]
  MFI: 2340 MFI
[35]
  MFI: 9380 MFI
[36]
  MFI: 15300 MFI
[37]
  MFI: 1690 MFI
[38]
  MFI: 2060 MFI
[39]
  MFI: 2270 MFI
[40]
  MFI: 0 MFI
[41]
  MFI: 1360 MFI
[42]
  MFI: 0 MFI
[43]
  MFI: 518 MFI
[44]
  MFI: 572 MFI
[45]
  MFI: 152 MFI
[46]
  MFI: 369 MFI
[47]
  MFI: 1020 MFI

## IVIg Gamunex-C Lot NKLK1 (antibody)
[1]
  Difference %: -79%
[2]
  Difference %: -65%
[48]
  Difference %: -80%
[4]
  Difference %: -77%
[5]
  Difference %: -59%
[6]
  Difference %: -77%
[7]
  MFI: 467 MFI
[8]
  MFI: 1480 MFI
[9]
  MFI: 1770 MFI
[10]
  MFI: 1200 MFI
[11]
  MFI: 2020 MFI
[12]
  MFI: 1950 MFI
HLA-B*8201 (B82) (human) [13]
  MFI: -193 MFI
[14]
  MFI: 3250 MFI
[15]
  MFI: 1070 MFI
[16]
  MFI: 2110 MFI
[17]
  MFI: 1660 MFI
[18]
  MFI: 1560 MFI
[19]
  MFI: 1820 MFI
[20]
  MFI: 7800 MFI
[21]
  MFI: 2400 MFI
[22]
  MFI: 6480 MFI
[23]
  MFI: 4310 MFI
[24]
  MFI: 7160 MFI
[25]
  MFI: 4130 MFI
[26]
  MFI: 3690 MFI
[27]
  MFI: 5980 MFI
[49]
  MFI: 5610 MFI
HLA-B*8201 (B82) (human) [28]
  MFI: 4780 MFI
[29]
  MFI: 5640 MFI
[30]
  MFI: 6160 MFI
[31]
  MFI: 10600 MFI
[32]
  MFI: 3020 MFI
[50]
  MFI: 6850 MFI
[33]
  MFI: 4430 MFI
[34]
  MFI: 10300 MFI
[35]
  MFI: 6810 MFI
[36]
  MFI: 10500 MFI
[37]
  MFI: 2720 MFI
[38]
  MFI: 3420 MFI
[39]
  MFI: 2890 MFI
[40]
  MFI: 0 MFI
[42]
  MFI: 0 MFI
[43]
  MFI: 915 MFI
[44]
  MFI: 1550 MFI
[45]
  MFI: 517 MFI
[46]
  MFI: 1410 MFI
[47]
  MFI: 2330 MFI
